Drawing on the RNAGym collection of RNA variant scans (doi:10.7554/elife.80360), this text covers self-cleavage for 38 variants.

The labels stand for the following.
B1: Hairpin Ribozyme (parent)
chain: GUCCUCUUUCACGUGCGCGUGAAAGAGAGAAGUGAACCAGAGAAACACACGUUGUGGUAUAUUACCUGGUA

The variants in the data set derive from B1. The data set is described as follows: self-cleavage, relative activity (ratio to wild type); higher = more cleavage; co-transcriptional.
For GUCCUCUUUCACGUGCGCGUGAAAGAGAGAAGUGAACCAGAGAAACACACGUCGUGGUAUAUUUCCUGGUA, the self-cleavage was found to be 0.

Consider GUCCUCUUUCACGUGCGCGUGAAAGAGAGAAGUGAACCAGAGAAACACACGUCGUGGUAUAUUCCCUGGUA, for which the self-cleavage worked out at 0.278.

On to GUCCUCUUUCACGUGCGCGUGAAAGAGAGAAGUGAACCAGAGAAACACACGGUGUGGUAUAUUACCGGGUA, for which the self-cleavage is 0.156.

Take GUCCUCUUUCACGUGCGCGUGAAAGAGAGAAGUGAACCAGAGAAACACACGUCGUGGUAUAUUAUCUGGUA: the self-cleavage stood at 0.274.

GUCCUCUUUCACGUGCGCGUGAAAGAGAGAAGUGAACCAGAGAAACACACGGUGUGGAAUAUUACCUGGUA: the self-cleavage worked out at 0.452.

For the variant GUCCUCUUUCACGUGCGCGUGAAAGAGAGAAGUGAACCAGAGAAACACACGGUGUGGCAUAUUACCUGGUA, the self-cleavage worked out at 0.707.

Consider GUCCUCUUUCACGUGCGCGUGAAAGAGAGAAGUGAACCAGAGAAACACACGGUGUGGUAUAUUACCUUGUA, for which the self-cleavage was 0.136.

On to GUCCUCUUUCACGUGCGCGUGAAAGAGAGAAGUGAACCAGAGAAACACACGGUGUGGUAUAUUACCUCGUA, for which the self-cleavage is 0.283.

With GUCCUCUUUCACGUGCGCGUGAAAGAGAGAAGUGAACCAGAGAAACACACGGUGUGGUAUAUGACCUGGUA, the self-cleavage is 0.134.

As for GUCCUCUUUCACGUGCGCGUGAAAGAGAGAAGUGAACCAGAGAAACACACGGUGUGGUAUAUAACCUGGUA, the self-cleavage came to 0.139.

Regarding GUCCUCUUUCACGUGCGCGUGAAAGAGAGAAGUGAACCAGAGAAACACACGGUGUGGUAUAUUACCUGGUG, the self-cleavage amounted to 0.654.

Consider GUCCUCUUUCACGUGCGCGUGAAAGAGAGAAGUGAACCAGAGAAACACACGGUGUUGUAUAUUACCUGGUA, for which the self-cleavage came to 0.131.

With GUCCUCUUUCACGUGCGCGUGAAAGAGAGAAGUGAACCAGAGAAACACACGUAGUGGUAUAUUUCCUGGUA, the self-cleavage was determined as 0.143.

With GUCCUCUUUCACGUGCGCGUGAAAGAGAGAAGUGAACCAGAGAAACACACGUAGUGGUAAAUUACCUGGUA, the self-cleavage is 1.08.

In the case of GUCCUCUUUCACGUGCGCGUGAAAGAGAGAAGUGAACCAGAGAAACACACGUAGUGGUAUAUCACCUGGUA, the self-cleavage turned out to be 0.156.

As for GUCCUCUUUCACGUGCGCGUGAAAGAGAGAAGUGAACCAGAGAAACACACGGUGUGGUAUAUUAUCUGGUA, the self-cleavage was found to be 0.302.

GUCCUCUUUCACGUGCGCGUGAAAGAGAGAAGUGAACCAGAGAAACACACGGGGUGGUAUAUUACCUGGUA: the self-cleavage was found to be 1.39.

With GUCCUCUUUCACGUGCGCGUGAAAGAGAGAAGUGAACCAGAGAAACACACGGAGUGGUAUAUUACCUGGUA, the self-cleavage stood at 0.857.

On to GUCCUCUUUCACGUGCGCGUGAAAGAGAGAAGUGAACCAGAGAAACACACGGUGUGGUAUAUUACCUGCUA, for which the self-cleavage is 0.478.

Turning to GUCCUCUUUCACGUGCGCGUGAAAGAGAGAAGUGAACCAGAGAAACACACGUAGUGGUAUAUUACUUGGUA, the self-cleavage was 0.649.

With GUCCUCUUUCACGUGCGCGUGAAAGAGAGAAGUGAACCAGAGAAACACACGUAGUGGAAUAUUACCUGGUA, the self-cleavage was determined as 0.746.

For the variant GUCCUCUUUCACGUGCGCGUGAAAGAGAGAAGUGAACCAGAGAAACACACGUAGUGGUCUAUUACCUGGUA, the self-cleavage stood at 0.0694.

Take GUCCUCUUUCACGUGCGCGUGAAAGAGAGAAGUGAACCAGAGAAACACACGUAGUGGUAUAUUACCUGGUC: the self-cleavage came to 1.41.

For the variant GUCCUCUUUCACGUGCGCGUGAAAGAGAGAAGUGAACCAGAGAAACACACGUAGUGAUAUAUUACCUGGUA, the self-cleavage stood at 0.14.

As for GUCCUCUUUCACGUGCGCGUGAAAGAGAGAAGUGAACCAGAGAAACACACGUAGUGUUAUAUUACCUGGUA, the self-cleavage turned out to be 0.181.

In the case of GUCCUCUUUCACGUGCGCGUGAAAGAGAGAAGUGAACCAGAGAAACACACGGUGUGAUAUAUUACCUGGUA, the self-cleavage was 0.181.

With GUCCUCUUUCACGUGCGCGUGAAAGAGAGAAGUGAACCAGAGAAACACACGGUGUGUUAUAUUACCUGGUA, the self-cleavage worked out at 0.232.

As for GUCCUCUUUCACGUGCGCGUGAAAGAGAGAAGUGAACCAGAGAAACACACGGUGUGCUAUAUUACCUGGUA, the self-cleavage came to 0.216.

As for GUCCUCUUUCACGUGCGCGUGAAAGAGAGAAGUGAACCAGAGAAACACACGGUGUGGUAUAGUACCUGGUA, the self-cleavage came to 0.0994.

Take GUCCUCUUUCACGUGCGCGUGAAAGAGAGAAGUGAACCAGAGAAACACACGGUGUGGUAUACUACCUGGUA: the self-cleavage was determined as 0.126.

For GUCCUCUUUCACGUGCGCGUGAAAGAGAGAAGUGAACCAGAGAAACACACGUCGUGGUCUAUUACCUGGUA, the self-cleavage turned out to be 0.217.

In the case of GUCCUCUUUCACGUGCGCGUGAAAGAGAGAAGUGAACCAGAGAAACACACGUCGUGGUUUAUUACCUGGUA, the self-cleavage came to 0.166.

Regarding GUCCUCUUUCACGUGCGCGUGAAAGAGAGAAGUGAACCAGAGAAACACACGGUGUGGUACAUUACCUGGUA, the self-cleavage was 1.08.

On to GUCCUCUUUCACGUGCGCGUGAAAGAGAGAAGUGAACCAGAGAAACACACGGUGUGGUAUAUUACCUGGCA, for which the self-cleavage is 0.605.

Regarding GUCCUCUUUCACGUGCGCGUGAAAGAGAGAAGUGAACCAGAGAAACACACGUAAUGGUAUAUUACCUGGUA, the self-cleavage is 0.68.

Take GUCCUCUUUCACGUGCGCGUGAAAGAGAGAAGUGAACCAGAGAAACACACGUAGUGGUAUAGUACCUGGUA: the self-cleavage stood at 0.146.

Regarding GUCCUCUUUCACGUGCGCGUGAAAGAGAGAAGUGAACCAGAGAAACACACGUAGUGGUAUAAUACCUGGUA, the self-cleavage was determined as 0.266.

In the case of GUCCUCUUUCACGUGCGCGUGAAAGAGAGAAGUGAACCAGAGAAACACACGGUGUGGUAUAUUACUUGGUA, the self-cleavage was found to be 0.474.
